Results published in patent US20230365681A1 (CELGENE, published 2023).
Where a chain is given by its changes, count along the chain named.

What was measured:
[1] = biological target: T1, human CD47 extracellular domain (human, UniProt Q08722 19-139); test: SPR, extracellular domain of human CD47
T1 construct: extracellular domain; also called human CD47 ECD; Hu CD47

[2] = biological target: T2, FcγR2A (H131) recombinant protein (human, UniProt P12318 34-217); test: recombinant protein, compared with control anti-RSV IgG1 antibody (p value 0.0038)
T2 sequence (looked up): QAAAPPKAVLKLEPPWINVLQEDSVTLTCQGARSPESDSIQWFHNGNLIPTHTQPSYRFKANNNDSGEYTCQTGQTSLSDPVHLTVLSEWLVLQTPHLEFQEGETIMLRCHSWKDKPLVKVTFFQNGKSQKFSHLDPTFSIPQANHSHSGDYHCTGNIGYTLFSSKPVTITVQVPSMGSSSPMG

[3] = biological target: recombinant human fragment crystallizable gamma receptor (FcγR) family members tested; test: recombinant human FcγR proteins; method not stated
human CD47 on cells [4] = biological target: T3, human CD47 on cells (human, UniProt Q08722 19-323); test: cell-based or functional assay
[5] = biological target: T4, cynomolgus CD47 extracellular domain (cynomolgus monkey, UniProt A0A2K5X523 19-141); test: SPR, cynomolgus CD47 ECD
T4 construct: also called cynomolgus CD47 ECD

[6] = biological target: T4, cynomolgus CD47 extracellular domain; test: SPR, cynomolgus CD47
[7] = biological target: T1, human CD47 extracellular domain; test: SPR, human CD47 ECD; Example 4 SPR; earlier determination than the 2.32 µM of paragraph 95
[8] = biological target: T5, cynomolgus CD20 on B cells (cynomolgus monkey, UniProt M4ZHZ6 1-297); test: binding to cynomolgus macaque B cells
T5 construct: whole, on cells; also called cynomolgus macaque B cells
T5 sequence: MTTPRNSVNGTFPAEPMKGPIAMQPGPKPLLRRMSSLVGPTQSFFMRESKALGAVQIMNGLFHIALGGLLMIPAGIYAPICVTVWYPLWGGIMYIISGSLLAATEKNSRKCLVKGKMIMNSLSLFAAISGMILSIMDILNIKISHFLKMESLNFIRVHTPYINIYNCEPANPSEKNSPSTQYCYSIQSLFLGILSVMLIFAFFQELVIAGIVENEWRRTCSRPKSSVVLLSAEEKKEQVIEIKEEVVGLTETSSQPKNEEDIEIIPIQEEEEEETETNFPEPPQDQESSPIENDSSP

[9] = biological target: FcγR3A (F176) recombinant protein (human, UniProt P08637 17-208); test: recombinant protein, compared with control anti-RSV IgG1 antibody (p value 0.0045)
[10] = biological target: T6, FcγR2B on engineered HEK293 cells (UniProt P31994 43-310); test: TR-FRET on FcγR-engineered HEK293 cells
T6 construct: whole, on cells; also called FcγR2B cell line
T6 sequence (looked up): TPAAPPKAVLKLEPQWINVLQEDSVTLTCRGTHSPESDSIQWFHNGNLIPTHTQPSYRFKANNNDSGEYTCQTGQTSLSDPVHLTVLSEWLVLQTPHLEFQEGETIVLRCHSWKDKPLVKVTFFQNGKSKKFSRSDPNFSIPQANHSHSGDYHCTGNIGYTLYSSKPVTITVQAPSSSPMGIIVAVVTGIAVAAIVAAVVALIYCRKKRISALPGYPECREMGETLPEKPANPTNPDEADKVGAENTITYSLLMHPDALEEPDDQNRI

[11] = biological target: T7, FcγR1 on engineered HEK293 cells (UniProt P12314 16-374); test: TR-FRET on FcγR-engineered HEK293 cells
T7 construct: whole, on cells; also called FcγR1 cell line

human CD20 on cells = biological target: T8, human CD20 on cells (human, UniProt P11836 1-297); test: binding to Raji cells (CD20+/CD47+), y axis MFI (the legend paragraph 44 says SPR)
T8 construct: whole, on cells; also called CD20 on Raji cells and human B cells
T8 sequence (looked up): T5 sequence with P25S, L31F, A51T, V157A, R217K, S226N, V227I, V239T

mouse CD47 = biological target: T9, mouse CD47 (mouse, UniProt Q61735 19-140, limits assumed); test: SPR
T9 sequence (looked up): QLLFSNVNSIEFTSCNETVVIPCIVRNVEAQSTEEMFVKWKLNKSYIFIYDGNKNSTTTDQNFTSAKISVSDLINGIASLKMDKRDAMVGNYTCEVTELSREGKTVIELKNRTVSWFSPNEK

[12] = biological target: T10, FcγR2A (R131) recombinant protein (human, UniProt P12318 34-217); test: recombinant protein, compared with control anti-RSV IgG1 antibody (p value 0.00019)
T10 sequence (looked up): T2 sequence (looked up) with H134R

human CD47 on cells [13] = biological target: T3, human CD47 on cells; test: blocking of human SIRPα binding to Raji cells, SIRPα at saturating concentration, secondary antibody detection; competitor SIRPα (repeated in paragraph 145 as average EC50); Raji cells (CD20+/CD47+); blocking of SIRPα binding
[14] = biological target: FcγR3A (V176) recombinant protein (human, UniProt P08637 17-208); test: recombinant protein, compared with control anti-RSV IgG1 antibody (p value 0.0049)
[15] = biological target: T1, human CD47 extracellular domain; test: SPR, human CD47 ECD
human CD47 on cells [16] = biological target: T3, human CD47 on cells; test: blocking of human SIRPα binding to OCI-Ly3 cells, SIRPα at saturating concentration, secondary antibody detection; competitor SIRPα (repeated in paragraph 145 as average EC50); OCI-Ly3 cells (CD20+/CD47+); blocking of SIRPα binding
human CD20 = biological target: T11, human CD20 (human, UniProt P11836 1-297, limits assumed); test: sandwich SPR
T11 sequence (looked up): T5 sequence with P25S, L31F, A51T, V157A, R217K, S226N, V227I, V239T

T3 sequence (Q08722 19-323): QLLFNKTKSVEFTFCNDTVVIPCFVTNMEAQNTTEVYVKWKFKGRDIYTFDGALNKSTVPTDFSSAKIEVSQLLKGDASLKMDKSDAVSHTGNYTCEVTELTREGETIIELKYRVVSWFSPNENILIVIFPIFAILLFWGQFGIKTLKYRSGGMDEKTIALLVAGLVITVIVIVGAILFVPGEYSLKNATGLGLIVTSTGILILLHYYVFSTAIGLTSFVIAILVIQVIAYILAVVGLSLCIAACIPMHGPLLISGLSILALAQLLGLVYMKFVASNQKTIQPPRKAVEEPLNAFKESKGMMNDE
T1 sequence (Q08722 19-139 limits assumed): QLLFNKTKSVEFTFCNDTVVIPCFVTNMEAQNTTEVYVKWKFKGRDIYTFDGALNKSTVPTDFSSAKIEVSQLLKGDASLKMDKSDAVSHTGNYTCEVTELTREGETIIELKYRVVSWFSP
T4 sequence (A0A2K5X523 entry or part of it limits assumed): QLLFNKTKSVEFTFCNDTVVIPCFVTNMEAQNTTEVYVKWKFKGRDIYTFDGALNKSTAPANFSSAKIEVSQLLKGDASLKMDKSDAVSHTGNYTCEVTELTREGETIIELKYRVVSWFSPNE
FcγR3A (F176) recombinant protein, sequence (P08637 17-208): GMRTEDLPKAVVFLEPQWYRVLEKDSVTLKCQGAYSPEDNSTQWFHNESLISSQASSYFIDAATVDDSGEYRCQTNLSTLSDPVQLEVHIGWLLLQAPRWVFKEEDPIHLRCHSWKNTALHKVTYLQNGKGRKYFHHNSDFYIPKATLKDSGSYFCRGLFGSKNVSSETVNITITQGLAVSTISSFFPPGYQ
FcγR3A (V176) recombinant protein, sequence (P08637 17-208 F176V): as the sequence (P08637 17-208) above, with F160V counted along it
T7 sequence (P12314 16-374, change not shown): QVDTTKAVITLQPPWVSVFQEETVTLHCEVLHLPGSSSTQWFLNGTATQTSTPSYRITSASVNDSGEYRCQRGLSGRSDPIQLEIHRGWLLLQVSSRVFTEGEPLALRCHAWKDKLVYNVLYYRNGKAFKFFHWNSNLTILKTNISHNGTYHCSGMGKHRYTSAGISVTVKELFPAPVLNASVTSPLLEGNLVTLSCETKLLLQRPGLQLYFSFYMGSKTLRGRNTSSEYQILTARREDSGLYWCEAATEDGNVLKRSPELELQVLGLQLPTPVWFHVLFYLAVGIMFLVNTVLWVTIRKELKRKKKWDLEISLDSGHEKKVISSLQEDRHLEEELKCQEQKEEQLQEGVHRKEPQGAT

- Kd [1]: 2320 nM
- binding result [2]: binds
- Kd [3]: 0.04 to 1620 nM
- EC50 of macrophage phagocytosis of OCI-Ly3 cells, OCI-Ly3 Mφ EC50 (µg/mL) REPEAT (human CD47 on cells [4]): 0.27 µg/mL
- Kd [5]: 4510 nM
- Kd [6]: 23000 nM
- Kd [7]: 1700 nM
- binding result [8]: binds
- binding result [9]: binds
- binding result [10]: binds
- binding result [11]: binds
- binding result (human CD20 on cells): binds
- binding result (mouse CD47): no binding
- binding result [12]: binds
- EC50 (human CD47 on cells [13]): 1.64 nM
- binding result [14]: binds
- fold decrease in affinity relative to the parental anti-CD47 binder [15]: ~350 fold
- EC50 (human CD47 on cells [16]): 1.3 nM
- binding result (human CD20): binds
B1: TPP-1360 (bispecific antibody, human IgG1, kappa)
light 1: NIQMTQSPSSLSASVGDRVTITCRASQDIHRYLSWFQQKPGKVPKHLIYRESRFVDGVPSRFSGSGSGTEFTLTISSLQPEDFATYYCLQYDEFPYTFGGGTKVEIKRTVAAPSVFIFPPSDEELKSGTASVVCWLNNFYPREAKVQWKVDNALQSGNSEESVTEQDSKDSTYSLSSTLELSKADYEKHKVYACEVTHQGLSSPVTKSFNRGEC
heavy 1: QMQLVQSGAEVKKPGSSVKVSCKASGFNIKDYYLHWVRQAPGKGLEWMGWIDPDQGDTYYAQKFQGRVTITRDRSTSTAYMELRSLRAEDTAVYYCNAAYGESSYPMDYWGQGTLVTVSSASTKGPSVFPLAPSSKSTSGGTAALGCLVKDYFPEPVTVSWNSGALTSGVHTFPAVLKSSGLYSLSSVVTVPSSSLGTQTYICNVNHKPSNTKVDKKVEPKSCDKTHTCPPCPAPELLGGPSVFLFPPKPKDTLMISRTPEVTCVVVDVSHEDPEVKFNWYVDGVEVHNAKTKPREEQYNSTYRVVSVLTVLHQDWLNGKEYKCKVSNKALPAPIEKTISKAKGQPREPQVYVLPPSREEMTKNQVSLLCLVKGFYPSDIAVEWESNGQPENNYLTWPPVLDSDGSFFLYSKLTVDKSRWQQGNVFSCSVMHEALHNHYTQKSLSLSPGK
light 2: QIVLSQSPAILSASPGEKVTMTCRASSSVSYIHWFQQKPGSSPKPWIYATSNLASGVPVRFSGSGSGTSYSLTISRVEAEDAATYYCQQWTSNPPTFGGGTKLEIKRTVAAPSVAIFPPSDERLKSGTASVVCVLNNFYPREAKVQWKVDNALQSGNSQESVTEQDSKDSTYSLSSRLTLSKADYEKHKVYACEVTHQGLSSPVTKSFNRGEC
heavy 2: QVQLQQPGAELVKPGASVKMSCKASGYTFTSYNMHWVKQTPGRGLEWIGAIYPGNGDTSYNQKFKGKATLTADKSSSTAYMQLSSLTSEDSAVYYCARSTYYGGDWYFNVWGAGTTVTVSAASTKGPSVFPLAPSSKSTSGGTAWLGCEVTDYFPEPVTVSWNSGALTSGVHTFPAVLESSGLYSLSSVVTVPSSSLGTQTYICNVNHKPSNTKVDKKVEPKSCDKTHTCPPCPAPELLGGPSVFLFPPKPKDTLMISRTPEVTCVVVDVSHEDPEVKFNWYVDGVEVHNAKTKPREEQYNSTYRVVSVLTVLHQDWLNGKEYKCKVSNKALPAPIEKTISKAKGQPREPQVYVYPPSREEMTKNQVSLTCLVKGFYPSDIAVEWESNGQPENNYKTTPPVLDSDGSFALVSKLTVDKSRWQQGNVFSCSVMHEALHNHYTQKSLSLSPGK
notes: also called CD47xCD20 bispecific; anti-CD47/anti-CD20 IgG1 1+1 heterodimer bispecific antibody
